Test results taken from publication PMC7553327, “The vimentin rod domain blocks P-selectin-P-selectin glycoprotein ligand 1 interactions to attenuate leukocyte adhesion to inflamed endothelium” (PLoS ONE, 2020).
Values belong to the binder of their own block, whether it stands above or below them.

Tests used:
[1] = molecular target: T1, P-selectin/Fc (human, UniProt P16109 42-771); experiment: BLI; P-sel/Fc immobilised on AR2G sensors; PSGL-1/Fc (Sino Biological) as analyte, 0–1,000 nM; DPBS; in duplicate; settings: both partners purified
T1 construct: P-selectin; Labelled with IR800CW dye for the SPOT-Vim array; No catalogue number printed; also called P-sel/Fc; P-sel/Fc-IR800; source: bought: R & D Systems
T1 sequence (looked up): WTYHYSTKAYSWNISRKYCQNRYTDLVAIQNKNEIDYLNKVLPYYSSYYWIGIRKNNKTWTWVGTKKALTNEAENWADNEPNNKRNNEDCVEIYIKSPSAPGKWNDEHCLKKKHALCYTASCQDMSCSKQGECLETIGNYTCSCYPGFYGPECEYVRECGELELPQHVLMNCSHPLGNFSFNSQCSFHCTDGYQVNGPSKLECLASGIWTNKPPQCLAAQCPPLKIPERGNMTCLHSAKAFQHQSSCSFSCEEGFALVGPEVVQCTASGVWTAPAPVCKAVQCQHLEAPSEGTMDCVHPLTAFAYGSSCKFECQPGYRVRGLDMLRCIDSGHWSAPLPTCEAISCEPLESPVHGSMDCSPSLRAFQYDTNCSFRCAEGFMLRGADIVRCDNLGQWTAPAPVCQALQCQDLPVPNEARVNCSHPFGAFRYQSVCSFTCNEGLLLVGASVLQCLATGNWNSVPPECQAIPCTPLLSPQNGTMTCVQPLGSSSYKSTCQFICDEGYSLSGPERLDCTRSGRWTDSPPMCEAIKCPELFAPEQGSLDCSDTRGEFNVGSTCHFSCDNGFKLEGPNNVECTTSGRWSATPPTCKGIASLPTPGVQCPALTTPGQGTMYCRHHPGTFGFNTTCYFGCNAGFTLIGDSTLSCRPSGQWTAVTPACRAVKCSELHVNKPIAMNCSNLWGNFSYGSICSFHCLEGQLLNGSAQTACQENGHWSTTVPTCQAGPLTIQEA

[2] = molecular target: T1, P-selectin/Fc; experiment: BLI; P-sel/Fc or PSGL-1/Fc (10 μg/mL) immobilised on anti-human IgG Fc (AHC) sensors; rhVim or rhRod as analyte, 0–1,000 nM; DPBS; steady state analysis; settings: both partners purified
[3] = molecular target: T1, P-selectin/Fc; experiment: BLI; rhVim or rhRod (50 μg/mL) immobilised by amine coupling on AR2G sensors; P-sel/Fc or PSGL-1/Fc as analyte, 0–1,000 nM; DPBS; steady state analysis; settings: both partners purified
[4] = molecular target: T1, P-selectin/Fc; experiment: BLI; blocking: P-sel/Fc on AR2G sensors placed into rhRod 0–1,000 nM (association, then dissociation in DPBS), then into 500 nM PSGL-1/Fc (Sino Biological); PSGL-1/Fc response against rhRod concentration, non-linear regression; in duplicate; settings: both partners purified
[5] = molecular target: T1, P-selectin/Fc; experiment: BLI; separate set of experiments: room temperature aliquot of rhRod (1,000 nM) on immobilized P-sel/Fc, performed as above; DPBS; settings: both partners purified
[6] = molecular target: the molecule itself; experiment: SDS-PAGE in non-reducing and reducing conditions, Coomassie stain; purified protein; non-reduced against reduced

- Kd [1]: 240 ± 67 nM
B1: recombinant human PSGL-1/Fc (Sino Biological Inc.) (Fc fusion, UniProt Q14242 42-320, looked up)
chain: QATEYEYLDYDFLPETEPPEMLRNSTDTTPLTGPGTPESTTVEPAARRSTGLDAGGAVTELTTELANMGNLSTDSAAMEIQTTQPAATEAQTTQPVPTEAQTTPLAATEAQTTRLTATEAQTTPLAATEAQTTPPAATEAQTTQPTGLEAQTTAPAAMEAQTTAPAAMEAQTTPPAAMEAQTTQTTAMEAQTTAPEATEAQTTQPTATEAQTTPLAAMEALSTEPSATEALSMEPTTKRGLFIPFSVSSVTHKGIPMAASNLSVNYPVGAPDHISVKQC
notes: P-selectin glycoprotein ligand-1, human; No catalogue number printed; source: bought: Sino Biological Inc

- Kd [2]: 10 ± 0.6 nM
- Kd [3]: 41 ± 6 nM
- IC50 [4]: 20 nM
- Kd [5]: 280 ± 61 nM
B2: recombinant human rod domain of vimentin (domain or fragment)
chain: not shown
notes: vimentin, human, rod domain, aa residues 96-407 (base pairs 717-1,652 of NM_00380.3 as printed); 38.2 kDa used for concentration; Labelled with IR800CW dye for the SPOT-Psel array; Dimerized in non-reducing SDS-PAGE. ΔrhRod is the same protein after 10 minutes in boiling water; also called rhRod; rod domain of recombinant vimentin
- binding result [6]: binds
